Results from PMC6614449, “Targeting DNAJB9, a novel ER luminal co-chaperone, to rescue ΔF508-CFTR” (Scientific Reports, 2019).
Each block holds one binder with its values, some of them ahead of it.

Target: T1, full length FLAG-CFTR (WT-CFTR) (UniProt P13569 1-1480)
T1 construct: Cystic Fibrosis transmembrane-conductance regulator (CFTR), wild type, 1,480 amino acids; Surface CFTR was probed with anti-FLAG on fixed cells, so the FLAG tag may lie in an extracellular loop; also called FLAG-WT-CFTR; Cystic Fibrosis transmembrane-conductance regulator; source: HEK293 cells stably expressing it; purified on anti-FLAG resin (ProtoArray) or in whole-cell lysate (co-IP)
Assay: peptide or protein array; ProtoArray protein microarray (Invitrogen / ThermoFisher) probed with purified full length FLAG-CFTR in solution; bound CFTR detected with mouse anti-FLAG monoclonal antibody and Alexa-488 secondary antibody, fluorescence scanner; mean of duplicate
Conditions: both partners purified

T1 sequence (P13569 whole entry): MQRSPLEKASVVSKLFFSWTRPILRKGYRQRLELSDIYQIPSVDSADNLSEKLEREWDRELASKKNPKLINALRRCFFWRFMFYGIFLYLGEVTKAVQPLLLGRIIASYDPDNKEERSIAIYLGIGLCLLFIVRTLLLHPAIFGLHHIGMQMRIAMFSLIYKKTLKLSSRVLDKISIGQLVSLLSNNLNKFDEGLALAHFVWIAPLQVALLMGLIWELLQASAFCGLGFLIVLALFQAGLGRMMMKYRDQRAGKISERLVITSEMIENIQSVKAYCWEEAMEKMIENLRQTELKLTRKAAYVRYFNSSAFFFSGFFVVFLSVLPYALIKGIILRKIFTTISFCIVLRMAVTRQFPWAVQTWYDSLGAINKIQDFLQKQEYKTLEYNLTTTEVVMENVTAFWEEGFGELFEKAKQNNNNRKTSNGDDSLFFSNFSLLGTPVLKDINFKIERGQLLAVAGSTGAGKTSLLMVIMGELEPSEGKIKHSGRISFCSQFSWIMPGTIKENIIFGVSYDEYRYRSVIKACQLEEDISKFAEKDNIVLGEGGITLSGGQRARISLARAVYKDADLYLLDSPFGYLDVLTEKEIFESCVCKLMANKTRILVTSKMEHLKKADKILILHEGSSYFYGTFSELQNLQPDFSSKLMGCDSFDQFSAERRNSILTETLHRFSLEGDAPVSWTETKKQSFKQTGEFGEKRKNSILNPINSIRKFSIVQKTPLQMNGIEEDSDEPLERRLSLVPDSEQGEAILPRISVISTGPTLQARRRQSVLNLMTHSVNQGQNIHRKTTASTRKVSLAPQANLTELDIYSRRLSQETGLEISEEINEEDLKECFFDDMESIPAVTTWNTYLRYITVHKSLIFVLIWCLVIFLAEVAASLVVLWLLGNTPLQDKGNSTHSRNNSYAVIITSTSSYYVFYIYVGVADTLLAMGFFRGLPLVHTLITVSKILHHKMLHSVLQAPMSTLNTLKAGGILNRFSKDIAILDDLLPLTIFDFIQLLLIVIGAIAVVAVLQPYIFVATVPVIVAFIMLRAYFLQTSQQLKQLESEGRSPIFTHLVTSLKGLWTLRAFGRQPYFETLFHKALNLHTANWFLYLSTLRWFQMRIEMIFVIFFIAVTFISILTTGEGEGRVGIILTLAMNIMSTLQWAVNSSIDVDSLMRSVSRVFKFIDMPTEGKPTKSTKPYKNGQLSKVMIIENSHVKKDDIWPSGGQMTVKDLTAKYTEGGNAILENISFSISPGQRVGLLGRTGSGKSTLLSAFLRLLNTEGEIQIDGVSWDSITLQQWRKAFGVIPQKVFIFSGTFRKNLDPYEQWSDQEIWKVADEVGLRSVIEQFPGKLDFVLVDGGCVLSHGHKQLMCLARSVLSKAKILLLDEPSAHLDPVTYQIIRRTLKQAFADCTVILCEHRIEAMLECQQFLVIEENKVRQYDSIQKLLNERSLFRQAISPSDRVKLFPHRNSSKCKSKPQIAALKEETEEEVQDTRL

- binding result: binds
B1: DNAJB8 (on the ProtoArray) (natural protein, UniProt Q8NHS0 1-232, looked up)
chain: MANYYEVLGVQASASPEDIKKAYRKLALRWHPDKNPDNKEEAEKKFKLVSEAYEVLSDSKKRSLYDRAGCDSWRAGGGASTPYHSPFDTGYTFRNPEDIFREFFGGLDPFSFEFWDSPFNSDRGGRGHGLRGAFSAGFGEFPAFMEAFSSFNMLGCSGGSHTTFSSTSFGGSSSGSSGFKSVMSSTEMINGHKVTTKRIVENGQERVEVEEDGQLKSVTVNGKEQLKWMDSK
notes: DNAJB8, protein spotted on the ProtoArray; source: bought: spotted on ProtoArray protein microarray (Invitrogen / ThermoFisher)

- binding result: binds
B2: DNAJB7 (on the ProtoArray) (natural protein, UniProt Q7Z6W7 1-309, looked up)
chain: MVDYYEVLGLQRYASPEDIKKAYHKVALKWHPDKNPENKEEAERKFKEVAEAYEVLSNDEKRDIYDKYGTEGLNGGGSHFDDECEYGFTFHKPDDVFKEIFHERDPFSFHFFEDSLEDLLNRPGSSYGNRNRDAGYFFSTASEYPIFEKFSSYDTGYTSQGSLGHEGLTSFSSLAFDNSGMDNYISVTTSDKIVNGRNINTKKIIESDQEREAEDNGELTFFLVNSVANEEGFAKECSWRTQSFNNYSPNSHSSKHVSQYTFVDNDEGGISWVTSNRDPPIFSAGVKEGGKRKKKKRKEVQKKSTKRNC
notes: DNAJB7, protein spotted on the ProtoArray; source: bought: spotted on ProtoArray protein microarray (Invitrogen / ThermoFisher)

- binding result: binds
B3: Na+/H+ Exchange Regulator Factor 1 (on the ProtoArray) (natural protein, UniProt O14745 1-358, looked up)
chain: MSADAAAGAPLPRLCCLEKGPNGYGFHLHGEKGKLGQYIRLVEPGSPAEKAGLLAGDRLVEVNGENVEKETHQQVVSRIRAALNAVRLLVVDPETDEQLQKLGVQVREELLRAQEAPGQAEPPAAAEVQGAGNENEPREADKSHPEQRELRPRLCTMKKGPSGYGFNLHSDKSKPGQFIRSVDPDSPAEASGLRAQDRIVEVNGVCMEGKQHGDVVSAIRAGGDETKLLVVDRETDEFFKKCRVIPSQEHLNGPLPVPFTNGEIQKENSREALAEAALESPRPALVRSASSDTSEELNSQDSPPKQDSTAPSSTSSSDPILDFNISLAMAKERAHQKRSSKRAPQMDWSKKNELFSNL
notes: NHERF1 (EBP50), protein spotted on the ProtoArray; also called NHERF1; EBP50; source: bought: spotted on ProtoArray protein microarray (Invitrogen / ThermoFisher)
